Assay results as given in the supplement of paper PMC10899765.

Columns and labels:
Settings in all cases: 20 nM; 72 h
MCF10A [1] = assay: percent viability (nuclei count relative to siNT); higher = more viable cells
Protocol: (§1)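 After 72 h, cells were fixed and stained with Hoechst and anti-fibrillarin, and nucleoli per nucleus were counted with CellProfiler. Values are plate-adjusted percent effect for the one-nucleolus and 5+ nucleoli phenotypes, normalised to siNT (0%) and to the positive controls siNOL11 or siKIF11 (100%), as the mean of biological triplicates. Percent viability is the nuclei count relative to siNT.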

MCF10A [2] = assay: 5+ nucleoli phenotype percent effect (relative to siNT 0% and siKIF11 100%); higher = more cells with five or more nucleoli
Protocol: as §1

MCF10A [3] = assay: one-nucleolus phenotype percent effect (relative to siNT 0% and siNOL11 100%); higher = more cells with one nucleolus (ribosome biogenesis inhibition)
Protocol: as §1

Sequence	percent viability (MCF10A [1])	5+ nucleoli phenotype percent effect (MCF10A [2])	one-nucleolus phenotype percent effect (MCF10A [3])
AGAGCUGAGACUAGAAAGCCCA [hsa-miR-3160-3p]	19.1%	-5.31%	23.1%
AGUGGACCGAGGAAGGAAGGA [hsa-miR-4800-5p]	44.8%	-9.53%	2.75%
CAAAAACCACAGUUUCUUUUGC [hsa-miR-548d-3p]	65.5%	-4.46%	-0.45%
AGGCAGCGGGGUGUAGUGGAUA [hsa-miR-885-3p]	19.2%	-36.7%	61.2%
CUCUCACCACUGCCCUCCCACAG [hsa-miR-1229-3p]	75.8%	24.9%	-20.5%
AGGGUGUGUGUGUUUUU [hsa-miR-4455]	22.4%	13.6%	3.96%
CAACACCAGUCGAUGGGCUGU [hsa-miR-21-3p]	52.9%	-31.2%	35.5%
UUCCACUGCCACUACCUAAUUU [hsa-miR-6509-3p]	56.2%	-18.4%	-4.11%
CCUAUUCUUGAUUACUUGUUUC [hsa-miR-26a-2-3p]	138%	2.15%	-7.71%
ACCUGGACCCAGCGUAGACAAAG [hsa-miR-3690]	79.1%	65%	-25.7%
CUCAGUAGCCAGUGUAGAUCCU [hsa-miR-222-5p]	57.4%	-14.7%	14%
UGUUCUCUUUGCCAAGGACAG [hsa-miR-2117]	56.1%	4.15%	-0.405%
AUGGUUCCGUCAAGCACCAUGG [hsa-miR-218-1-3p]	51%	4.75%	11.8%
AGGUGGAUGCAAUGUGACCUCA [hsa-miR-3165]	3.1%	-22.9%	1.14%
UUGGGGGUGAGGUUGGUGUCUGG [hsa-miR-6751-5p]	7.37%	-13.1%	13.4%
UCCUUCUGCUCCGUCCCCCAG [hsa-miR-1237-3p]	52.7%	6.7%	-0.823%
AACCCCUAAGGCAACUGGAUGG [hsa-miR-5195-5p]	53.1%	2.35%	-2.47%
UGGGCUGGCAGGGCAAGUGCUG [hsa-miR-4498]	9.7%	-6.13%	38.7%
GGGGCUGUGAUUGACCAGCAGG [hsa-miR-4675]	24.1%	-11.5%	10.5%
CUACAAAGGGAAGCACUUUCUC [hsa-miR-524-5p]	41.4%	-38.7%	17.4%
AAGGCCCGGGCUUUCCUCCCAG [hsa-miR-4747-3p]	29.2%	-14.1%	31.7%
GGUUCCCUCUCCAAAUGUGUCU [hsa-miR-642b-5p]	44.4%	21.2%	11.8%
UUCACUGGAGUUUGUUUCAAUA [hsa-miR-653-3p]	57.9%	-0.303%	-7.51%
GAAGACUUCUUGGAUUACAGGGG [hsa-miR-8087]	112%	-8.56%	2.61%
